B1: PRb-CN01: anti-mPDGFR-β chicken scFv clone (VH SEQ ID NO 7, VL SEQ ID NO 8), tested as scFv-Cκ-anti-cotinine scFv bispecific antibody (antibody, V domains shown)
VH: AVTLDESGGGLQTPGGALSLVCKASGFTFSDRAMHWVRQAPGKGLEWVGLITNTGGSTNYGAAVKGRATISRDNGQSTVRLQLNNLRAEDTGTYYCTRGVGSWAHGGRIDAWGHGTEVIVSS
VL: LTQPSSVSANPGETVKITCSGGSGSYGWFQQKSPGSAPVTVIYSNNQRPSDIPSRFSGSKSGSTNTLTITGVQAEDEAIYYCGTRDSSYVGIFGAGTTLTVL
modifications: VH of PRb-CN01; VL of PRb-CN01
B2: PRb-CN32: anti-hPDGFR-β scFv clone (VH SEQ ID NO 47, VL SEQ ID NO 48), tested as scFv-Cκ-anti-cotinine scFv bispecific antibody (antibody, V domains shown)
VH: AVTLDESGGGLQTPRGTLSLVCKASGFTFSSFNMFWVRQAPGKGLEFVAGISTTGRYTGYGSAVQGRGTISRDNGQSTVRLQLNNLRAEDTGTYYCAKSAGSTYSYWDSDAGLIDAWGHGTEVIVSSTS
VL: LTQPSSVSANLGETVKITCSGGSNAGSYYYGWYQQKSPGSAPVTVIYSNNQRPSDIPSRFSGSTSGSTSTLTITGVQVDDEAVYFCGSGDSSSIAAFGAGTTLTVL
modifications: VH of PRb-CN32; VL of PRb-CN32

Columns and labels:
MOLT-4 cells = test: Cytotoxicity in MOLT-4 cells not expressing mPDGFR-β; format: cell-based; conditions: complex with cot-duo; FIG. 7
Procedure: FIG. 7 is a graph confirming the cytotoxic ability of the bispecific antibody related to the anti-mPDGFR-β antibody and cot-duo complexes in the cells not expressing PDGFR-β. In FIG. 7a, MOLT-4 cells were reacted with the bispecific antibody and cot-duo complex (DAR4). The cellular ATP was measured to evaluate the relative cell viability. In FIG. 7b, MOLT-4 cells were reacted with the bispecific antibody and cot-duo complex (DAR2). The bispecific antibody anti-HER2 x cotinine scFv-Cκ-scFv was used as a negative control. DMSO was used as a vehicle control for cot-duo.

[1] = biological target: T1, NIH3T3 cells expressing mPDGFR-β (Mus musculus, UniProt P05622); test: Flow cytometry binding to NIH3T3 cells expressing mPDGFR-β; conditions: for binding to NIH3T3 cells: 100 nM, FIG. 18
T1 construct: host or cells: NIH3T3
Procedure: mPDGF-BB was biotinylated using a biotin-xx microscale protein labeling kit (Invitrogen) according to the manufacturer's instructions. NIH3T3 cells were cultured at 4° C. for 1 hour using the bispecific antibody of scFv-Cκ-scFv fusion protein (100 nM) under two different conditions with or without mPDGF-BB-biotin (100 nM). The cells were washed 4 times with flow cytometry buffer and cultured with allophycocyanin (APC)-anti-human Cκ antibody (clone TB28-2; BD Biosciences, San Jose, CA, USA) and streptavidin-phycoerythrin (PE) (12-4317-87; eBioscience, ThermoFisher). After washing, it was classified and analyzed with a FACS Canto II instrument (BD Biosciences, San Jose, CA, USA). 10,000 cells were used for each measurement, and the results were analyzed by FlowJo (Tree Star, Ashland, OR, USA). […] The binding ability of the other three clones was inhibited by mPDGF-BB.
Specifically, the bispecific antibody scFv-Cκ-scFv fusion protein (100 nM) in flow cytometry buffer was cultured on NIH3T3 cells expressing mPDGFR-β. The cells were treated with APC-anti human Cκ antibody. The bispecific antibody anti-HER2 x cotinine scFv-Cκ-scFv fusion protein was used as a negative control.

NIH3T3 cells = test: cells; format: cell-based, mouse
Procedure: NIH3T3 cells were added to 50 μL of DMEM supplemented with 10% FBS and 1% penicillin/streptomycin, placed in a 96-well plate (CLS3595, Corning) and incubated overnight in 5% CO2 at 37° C. incubator. In each well containing 50 μL of cells, 50 μL of 50 anti-PDGFR-β x cotinine scFv-Cκ-scFv fusion protein (25.6 pM-2 μM) complexed with cot-duo or cot-duo-cot obtained in Experimental Example 10 was added and incubated for 72 hours in 5% CO2 at 37° C. incubator. To test mPDGF-BB on the toxic effect of the bispecific antibody of scFv-Cκ-scFv and the cotinine-duocarmycin complex, mPDGF-BB (2 nM) was added together with 50 μL of the bispecific antibody scFv-Cκ-scFv and the cotinine-duocarmycin complex. The mixed complexes were added to 50 μL of NIH3T3 cells.
The bispecific antibody of anti-HER2 x cotinine scFv-Cκ-scFv was used as a control. After 72 hours of incubation in the cells, 100 μL of Cell Titer-Glo reagents (Promega Corp., Madison, WI, USA) were added to all wells according to the manufacturer's instructions, and luminescence was measured in a luminometer (PerkinElmer, Waltham, MA, USA). The experiment was repeated 3 times. Relative viability was calculated with the following formula: [% viability=(luminescence of experimental well-luminescence of background well)/(luminescence of control-luminescence of background well)×100]. The wells containing only new medium were used as background wells.
To evaluate the toxicity of the complex of anti-mPDGFR-B x cotinine scFv-Cκ-scFv bispecific antibodies and cotinine duocarmycin (cot-duo, cot-duo-cot), the complexes were added to NIH3T3 cells in the presence/absence of mPDGF-BB. The ATP of the cells was measured for relative cell viability. The toxicity of the bispecific antibody of scFv-Cκ-scFv fusion antibody was shown by IC50 in Table 6 and FIG. 5.
It was carried out in the same manner as in Example 7, except that the bispecific antibody related with the anti-mPDGFR-β antibody and the bispecific antibody related with the anti-hPDGFR-β antibody prepared in Example 10 were used. FIG. 20a to FIG. 20b are graphs showing the difference in cytotoxic activity of PRb-CN01 and PRb-CN32 bispecific antibodies and cotinine-duocarmycin complexes in the cells expressing PDGFR-β. In FIG. 20b, an experiment was repeated in the presence of mPDGF-BB.

mPDGFR-β = biological target: T2, mPDGFR-β (Mus musculus, UniProt P05622); test: Competition enzyme immunoassay against PRb-CN01-rabbit Fc on mPDGFR-β-hFc; format: binding; conditions: competitor bispecific scFv-Cκ-scFv 100 nM; FIG. 19a
T2 construct: mPDGFR-β
T2 sequence (P05622 32-530): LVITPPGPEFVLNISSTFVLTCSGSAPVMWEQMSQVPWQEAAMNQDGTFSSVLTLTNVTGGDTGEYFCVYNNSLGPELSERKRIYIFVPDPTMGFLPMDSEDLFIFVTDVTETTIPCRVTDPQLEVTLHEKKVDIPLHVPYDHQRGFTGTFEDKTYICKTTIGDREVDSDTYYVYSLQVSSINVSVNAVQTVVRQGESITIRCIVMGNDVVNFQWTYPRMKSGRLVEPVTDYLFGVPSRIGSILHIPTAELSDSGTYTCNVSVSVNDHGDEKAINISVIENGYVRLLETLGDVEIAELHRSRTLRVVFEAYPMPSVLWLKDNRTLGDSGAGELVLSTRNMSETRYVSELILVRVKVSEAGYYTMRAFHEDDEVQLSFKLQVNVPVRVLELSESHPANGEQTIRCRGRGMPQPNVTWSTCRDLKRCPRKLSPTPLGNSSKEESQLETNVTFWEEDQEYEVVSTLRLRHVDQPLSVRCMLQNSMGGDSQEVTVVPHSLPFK
Procedure: It was carried out in substantially the same manner as the enzyme immunoassay method for antibody binding ability of Example 3, except that mPDGFR-β-hFc chimeric protein was coated with O/N on a microtiter plate at a temperature of 4° C. After incubating the blocking agent in each well, various concentrations of PRb-CN01-rabbit Fc (0.01 nM-1 μM) and PRb-CN01, control anti-HER2 antibody, and PRb-CN32 bispecific scFv-Cκ-scFv (100 nM) diluted in 3% BSA/PBS were reacted in each well at 37° C. for 2 hours. After washing the plate three times with PBST, the HRP-anti rabbit Fc antibody was reacted at 37° C. for 1 hour, and after washing, the reaction was performed using ABTS. Then, the absorbance was measured at 405 nm with a Multiscan Ascent microplate device (Labsystems, Helsinki, Finland) (FIG. 19A). FIG. 19a is the result of confirming the competition for the PRb-CN01 surrogate antibody.

T1 sequence (P05622 32-1098): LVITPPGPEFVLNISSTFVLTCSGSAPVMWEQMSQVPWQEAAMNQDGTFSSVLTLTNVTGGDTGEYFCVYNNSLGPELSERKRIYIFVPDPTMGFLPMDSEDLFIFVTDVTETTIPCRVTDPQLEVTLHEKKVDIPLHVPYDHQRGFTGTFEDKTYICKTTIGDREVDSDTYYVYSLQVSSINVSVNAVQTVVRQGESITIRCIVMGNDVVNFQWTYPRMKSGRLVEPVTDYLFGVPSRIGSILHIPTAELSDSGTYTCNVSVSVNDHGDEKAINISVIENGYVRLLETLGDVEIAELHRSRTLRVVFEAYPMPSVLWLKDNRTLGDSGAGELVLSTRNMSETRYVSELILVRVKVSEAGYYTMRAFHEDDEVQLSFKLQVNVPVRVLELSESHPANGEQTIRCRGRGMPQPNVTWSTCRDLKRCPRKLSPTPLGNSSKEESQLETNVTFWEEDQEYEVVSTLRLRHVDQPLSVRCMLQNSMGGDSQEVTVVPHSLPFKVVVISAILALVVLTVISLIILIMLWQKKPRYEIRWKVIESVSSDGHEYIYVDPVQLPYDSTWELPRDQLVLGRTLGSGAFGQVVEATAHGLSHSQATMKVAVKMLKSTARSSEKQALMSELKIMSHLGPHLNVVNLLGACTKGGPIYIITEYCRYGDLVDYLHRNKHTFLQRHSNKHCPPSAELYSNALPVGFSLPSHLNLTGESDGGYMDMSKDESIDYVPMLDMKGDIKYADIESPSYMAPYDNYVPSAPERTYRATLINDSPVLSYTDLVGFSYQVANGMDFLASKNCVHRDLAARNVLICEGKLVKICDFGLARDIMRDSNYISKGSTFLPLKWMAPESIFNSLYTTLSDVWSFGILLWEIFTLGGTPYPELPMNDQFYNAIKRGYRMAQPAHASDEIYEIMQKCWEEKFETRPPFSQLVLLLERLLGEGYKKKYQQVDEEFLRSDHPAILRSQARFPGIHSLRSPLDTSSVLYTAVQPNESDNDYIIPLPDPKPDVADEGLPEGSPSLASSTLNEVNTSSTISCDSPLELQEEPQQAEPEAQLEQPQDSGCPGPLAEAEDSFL

Molecule	toxicity in MOLT-4 cells compared to control antibody (MOLT-4 cells)	cell binding in the presence of mPDGF-BB-biotin ([1]; 100 nM antibody, mPDGF-BB-biotin 100 nM, FIG. 4b)	binding to NIH3T3 cells [1]	cytotoxicity of complex with cotinine-duocarmycin, PRb-CN01 versus PRb-CN32 (NIH3T3 cells)	toxicity with the addition of mPDGF-BB (NIH3T3 cells; complex with cot-duo or cot-duo-cot, NIH3T3, FIG. 5)	toxicity compared to control anti-HER2 x cotinine scFv-Cκ-scFv (NIH3T3 cells; complex with cotinine-duocarmycin, NIH3T3, with or without mPDGF-BB, FIG. 5)	toxicity compared to free duocarmycin (NIH3T3 cells; cotinine-duocarmycin complexed with antibody, in the presence of mPDGF-BB, p<0.01)	inhibition of binding of PRb-CN01-rabbit Fc to mPDGFR-β-hFc chimeric protein (mPDGFR-β)
B1	no difference in toxicity from the control antibody	bound to PDGFR-β present on the cell surface	bound to NIH3T3 cells	equivalent cytotoxicity regardless of the presence/absence of mPDGF-BB	also high with the addition of mPDGF-BB	highest toxicity	significantly more toxic than free duocarmycin	inhibited
B2	–	–	bound to NIH3T3 cells	equivalent cytotoxicity regardless of the presence/absence of mPDGF-BB	–	–	–	inhibited

— patent US12098206B2, “PDGF receptor antibody and use thereof” (Seoul National University R&DB Foundation, priority 2018, dated 2024)
